The source of these data is PMC3587828 (The Journal of Cell Biology, 2013).

Experiment [1] deals with recombinant Cdc42 (Q61L), GST-free (human, UniProt P60953 1-188, Q61L | C188S). The experiment in a line: pull-down.
Another experiment addresses T1, MBP–Morg1 (human, UniProt Q9BRX9 1-315).
T1 sequence (looked up): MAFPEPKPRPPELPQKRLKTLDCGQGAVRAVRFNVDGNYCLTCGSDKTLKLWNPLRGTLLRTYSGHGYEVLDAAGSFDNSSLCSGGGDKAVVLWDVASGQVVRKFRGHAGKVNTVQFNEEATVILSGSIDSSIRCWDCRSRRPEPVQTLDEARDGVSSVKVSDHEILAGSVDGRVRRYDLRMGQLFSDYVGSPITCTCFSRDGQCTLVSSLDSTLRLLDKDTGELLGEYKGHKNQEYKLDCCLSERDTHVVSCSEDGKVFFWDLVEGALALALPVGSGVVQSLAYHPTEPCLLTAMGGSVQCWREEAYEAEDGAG
The experiment in a line: pull-down.

Sequence of recombinant Cdc42 (Q61L), GST-free (P60953 1-188 Q61L/C188S): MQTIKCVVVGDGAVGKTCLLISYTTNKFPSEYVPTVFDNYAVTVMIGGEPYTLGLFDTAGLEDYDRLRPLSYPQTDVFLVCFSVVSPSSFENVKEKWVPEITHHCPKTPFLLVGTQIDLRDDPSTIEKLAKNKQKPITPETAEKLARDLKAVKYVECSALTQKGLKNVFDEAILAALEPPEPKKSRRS

B1: GST–Par6β (126–254) (domain or fragment, human, UniProt Q9BYG5 126-254, looked up)
chain: RKKPHIVISMPQDFRPVSSIIDVDILPETHRRVRLYKYGTEKPLGFYIRDGSSVRVTPHGLEKVPGIFISRLVPGGLAQSTGLLAVNDEVLEVNGIEVSGKSLDQVTDMMIANSRNLIITVRPANQRNN
B1: the binding result (in experiment [1]; in the experiment with MBP–Morg1) was “binds” each time.
